The experiment has as its target T1, human NPY2 receptor (human, UniProt P49146 1-381).
T1 construct: whole, on cells; also called hNPY2-R; hNPY2R
T1 sequence (looked up): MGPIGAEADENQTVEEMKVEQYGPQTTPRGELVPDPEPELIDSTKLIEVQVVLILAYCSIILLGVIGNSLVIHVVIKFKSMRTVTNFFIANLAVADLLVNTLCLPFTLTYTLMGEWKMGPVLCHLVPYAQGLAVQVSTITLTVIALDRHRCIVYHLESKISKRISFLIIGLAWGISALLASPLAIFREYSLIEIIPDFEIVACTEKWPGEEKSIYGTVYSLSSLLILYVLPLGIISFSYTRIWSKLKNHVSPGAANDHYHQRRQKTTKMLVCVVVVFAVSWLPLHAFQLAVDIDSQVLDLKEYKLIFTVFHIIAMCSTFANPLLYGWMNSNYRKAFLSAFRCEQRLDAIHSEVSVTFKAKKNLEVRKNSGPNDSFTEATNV
The experiment can be described thus: RLB: displacement of 125I-PYY(1-36) from hNPY2R membranes. The method, then: The filtration RLB assay was carried out in 96-well plates in a final volume of 100 μl per well. Freeze-dried test peptides were dissolved in 100% dimethyl sulfoxide (DMSO) to stock solutions of 1 mM and serial dilutions were performed in assay buffer (50 mM HEPES, 5 mM MgCl₂, 1 mM CaCl₂), pH 7.4) containing 0.2% ovalbumin. […] Next, 80 μL membranes (HTS066M, ChemiSCREEN™ Human Neuropeptide Y2 Receptor Membrane Preparation, CHEMICON) were added to each well to give a final protein concentration of 0.5 μg/well. The plates were sealed and incubated at room temperature for 2 hours in a plate shaker set at 400 rpm. The incubation was stopped by vacuum filtration onto 0.5% polyethylene amine (PEI) presoaked GF/C filters using a 96-well FilterMate™ harvester (Perkin Elmer) followed by four washes with 300 μl/well ice-cold wash buffer (50 mM HEPES, 500 mM NaCl, pH7.4). Filter plates were then dried for 60 min at room temperature and the bottom of the plates was sealed with backing tape UniFilter-96. Finally, 50 μl/well scintillation counter cocktail (Microscint20, Packard) was added and the radioactivity was counted in the Packard TopCount NXT scintillation counter. IC₅₀ values (the half maximal inhibitory concentration of the agonist) were calculated by nonlinear regression analysis of sigmoidal dose-response curves.

*1 amine or outer side, *2 acyl side, *3 side chain or, on linkers, in order; H or OH if unused. Side-chain parts run from the residue outwards. The star is where a group is joined. C18 diacid = O=C(O)CCCCCCCCCCCCCCCCC(=O)*; γGlu = O=C(O)[C@H](CCC(=O)[*:2])N[*:1]; Isovaleryl = CC(C)CC(=O)*; Ahx = NCCCCCC(=O)O

B1: Compound 173 (peptide)
peptide: Isovaleryl-APEK([Ahx-γGlu-C18 diacid])PEEDATPEELQRYYVSLRHYYNWLTRQRY-NH2
SMILES: CC(C)CC(=O)N[C@@H](C)C(=O)N1CCC[C@H]1C(=O)N[C@@H](CCC(=O)O)C(=O)N[C@@H](CCCCNC(=O)CCCCCNC(=O)CC[C@H](NC(=O)CCCCCCCCCCCCCCCCC(=O)O)C(=O)O)C(=O)N1CCC[C@H]1C(=O)N[C@@H](CCC(=O)O)C(=O)N[C@@H](CCC(=O)O)C(=O)N[C@@H](CC(=O)O)C(=O)N[C@@H](C)C(=O)N[C@H](C(=O)N1CCC[C@H]1C(=O)N[C@@H](CCC(=O)O)C(=O)N[C@@H](CCC(=O)O)C(=O)N[C@@H](CC(C)C)C(=O)N[C@@H](CCC(N)=O)C(=O)N[C@@H](CCCNC(=N)N)C(=O)N[C@@H](Cc1ccc(O)cc1)C(=O)N[C@@H](Cc1ccc(O)cc1)C(=O)N[C@H](C(=O)N[C@@H](CO)C(=O)N[C@@H](CC(C)C)C(=O)N[C@@H](CCCNC(=N)N)C(=O)N[C@@H](Cc1c[nH]cn1)C(=O)N[C@@H](Cc1ccc(O)cc1)C(=O)N[C@@H](Cc1ccc(O)cc1)C(=O)N[C@@H](CC(N)=O)C(=O)N[C@@H](Cc1c[nH]c2ccccc12)C(=O)N[C@@H](CC(C)C)C(=O)N[C@H](C(=O)N[C@@H](CCCNC(=N)N)C(=O)N[C@@H](CCC(N)=O)C(=O)N[C@@H](CCCNC(=N)N)C(=O)N[C@@H](Cc1ccc(O)cc1)C(N)=O)[C@@H](C)O)C(C)C)[C@@H](C)O
B1 gave a Ki of 4.07 nM. This counts as single-digit nanomolar.

B2: Compound 4 (peptide)
peptide: Isovaleryl-APEK([Ahx-γGlu-C18 diacid])PEEAAEPEELQRYYVSLRHYYNWLTRQRY-NH2
SMILES: CC(C)CC(=O)N[C@@H](C)C(=O)N1CCC[C@H]1C(=O)N[C@@H](CCC(=O)O)C(=O)N[C@@H](CCCCNC(=O)CCCCCNC(=O)CC[C@H](NC(=O)CCCCCCCCCCCCCCCCC(=O)O)C(=O)O)C(=O)N1CCC[C@H]1C(=O)N[C@@H](CCC(=O)O)C(=O)N[C@@H](CCC(=O)O)C(=O)N[C@@H](C)C(=O)N[C@@H](C)C(=O)N[C@@H](CCC(=O)O)C(=O)N1CCC[C@H]1C(=O)N[C@@H](CCC(=O)O)C(=O)N[C@@H](CCC(=O)O)C(=O)N[C@@H](CC(C)C)C(=O)N[C@@H](CCC(N)=O)C(=O)N[C@@H](CCCNC(=N)N)C(=O)N[C@@H](Cc1ccc(O)cc1)C(=O)N[C@@H](Cc1ccc(O)cc1)C(=O)N[C@H](C(=O)N[C@@H](CO)C(=O)N[C@@H](CC(C)C)C(=O)N[C@@H](CCCNC(=N)N)C(=O)N[C@@H](Cc1c[nH]cn1)C(=O)N[C@@H](Cc1ccc(O)cc1)C(=O)N[C@@H](Cc1ccc(O)cc1)C(=O)N[C@@H](CC(N)=O)C(=O)N[C@@H](Cc1c[nH]c2ccccc12)C(=O)N[C@@H](CC(C)C)C(=O)N[C@H](C(=O)N[C@@H](CCCNC(=N)N)C(=O)N[C@@H](CCC(N)=O)C(=O)N[C@@H](CCCNC(=N)N)C(=O)N[C@@H](Cc1ccc(O)cc1)C(N)=O)[C@@H](C)O)C(C)C
In turn, B2 showed an inhibition constant Ki of 4.65 nM.

B3: Compound 5 (peptide)
peptide: Isovaleryl-APAK([Ahx-γGlu-C18 diacid])PEEDASPEELQRQYVSLRHYYNWLTRQRY-NH2
SMILES: CC(C)CC(=O)N[C@@H](C)C(=O)N1CCC[C@H]1C(=O)N[C@@H](C)C(=O)N[C@@H](CCCCNC(=O)CCCCCNC(=O)CC[C@H](NC(=O)CCCCCCCCCCCCCCCCC(=O)O)C(=O)O)C(=O)N1CCC[C@H]1C(=O)N[C@@H](CCC(=O)O)C(=O)N[C@@H](CCC(=O)O)C(=O)N[C@@H](CC(=O)O)C(=O)N[C@@H](C)C(=O)N[C@@H](CO)C(=O)N1CCC[C@H]1C(=O)N[C@@H](CCC(=O)O)C(=O)N[C@@H](CCC(=O)O)C(=O)N[C@@H](CC(C)C)C(=O)N[C@@H](CCC(N)=O)C(=O)N[C@@H](CCCNC(=N)N)C(=O)N[C@@H](CCC(N)=O)C(=O)N[C@@H](Cc1ccc(O)cc1)C(=O)N[C@H](C(=O)N[C@@H](CO)C(=O)N[C@@H](CC(C)C)C(=O)N[C@@H](CCCNC(=N)N)C(=O)N[C@@H](Cc1c[nH]cn1)C(=O)N[C@@H](Cc1ccc(O)cc1)C(=O)N[C@@H](Cc1ccc(O)cc1)C(=O)N[C@@H](CC(N)=O)C(=O)N[C@@H](Cc1c[nH]c2ccccc12)C(=O)N[C@@H](CC(C)C)C(=O)N[C@H](C(=O)N[C@@H](CCCNC(=N)N)C(=O)N[C@@H](CCC(N)=O)C(=O)N[C@@H](CCCNC(=N)N)C(=O)N[C@@H](Cc1ccc(O)cc1)C(N)=O)[C@@H](C)O)C(C)C
In turn, B3 showed a Ki of 12.7 nM.

B4: Compound 3 (peptide)
peptide: Isovaleryl-APAK([Ahx-γGlu-C18 diacid])PEADAEPEELQRYYVALRHYYNWLTRQRY-NH2
SMILES: CC(C)CC(=O)N[C@@H](C)C(=O)N1CCC[C@H]1C(=O)N[C@@H](C)C(=O)N[C@@H](CCCCNC(=O)CCCCCNC(=O)CC[C@H](NC(=O)CCCCCCCCCCCCCCCCC(=O)O)C(=O)O)C(=O)N1CCC[C@H]1C(=O)N[C@@H](CCC(=O)O)C(=O)N[C@@H](C)C(=O)N[C@@H](CC(=O)O)C(=O)N[C@@H](C)C(=O)N[C@@H](CCC(=O)O)C(=O)N1CCC[C@H]1C(=O)N[C@@H](CCC(=O)O)C(=O)N[C@@H](CCC(=O)O)C(=O)N[C@@H](CC(C)C)C(=O)N[C@@H](CCC(N)=O)C(=O)N[C@@H](CCCNC(=N)N)C(=O)N[C@@H](Cc1ccc(O)cc1)C(=O)N[C@@H](Cc1ccc(O)cc1)C(=O)N[C@H](C(=O)N[C@@H](C)C(=O)N[C@@H](CC(C)C)C(=O)N[C@@H](CCCNC(=N)N)C(=O)N[C@@H](Cc1c[nH]cn1)C(=O)N[C@@H](Cc1ccc(O)cc1)C(=O)N[C@@H](Cc1ccc(O)cc1)C(=O)N[C@@H](CC(N)=O)C(=O)N[C@@H](Cc1c[nH]c2ccccc12)C(=O)N[C@@H](CC(C)C)C(=O)N[C@H](C(=O)N[C@@H](CCCNC(=N)N)C(=O)N[C@@H](CCC(N)=O)C(=O)N[C@@H](CCCNC(=N)N)C(=O)N[C@@H](Cc1ccc(O)cc1)C(N)=O)[C@@H](C)O)C(C)C
In the case of B4, the Ki was determined as 1.57 nM.

B5: Compound 1 (peptide)
peptide: Isovaleryl-APEK([Ahx-γGlu-C18 diacid])PEADAEPEELQRYYIALRHYYNWLTRQRY-NH2
SMILES: CC[C@H](C)[C@H](NC(=O)[C@H](Cc1ccc(O)cc1)NC(=O)[C@H](Cc1ccc(O)cc1)NC(=O)[C@H](CCCNC(=N)N)NC(=O)[C@H](CCC(N)=O)NC(=O)[C@H](CC(C)C)NC(=O)[C@H](CCC(=O)O)NC(=O)[C@H](CCC(=O)O)NC(=O)[C@@H]1CCCN1C(=O)[C@H](CCC(=O)O)NC(=O)[C@H](C)NC(=O)[C@H](CC(=O)O)NC(=O)[C@H](C)NC(=O)[C@H](CCC(=O)O)NC(=O)[C@@H]1CCCN1C(=O)[C@H](CCCCNC(=O)CCCCCNC(=O)CC[C@H](NC(=O)CCCCCCCCCCCCCCCCC(=O)O)C(=O)O)NC(=O)[C@H](CCC(=O)O)NC(=O)[C@@H]1CCCN1C(=O)[C@H](C)NC(=O)CC(C)C)C(=O)N[C@@H](C)C(=O)N[C@@H](CC(C)C)C(=O)N[C@@H](CCCNC(=N)N)C(=O)N[C@@H](Cc1c[nH]cn1)C(=O)N[C@@H](Cc1ccc(O)cc1)C(=O)N[C@@H](Cc1ccc(O)cc1)C(=O)N[C@@H](CC(N)=O)C(=O)N[C@@H](Cc1c[nH]c2ccccc12)C(=O)N[C@@H](CC(C)C)C(=O)N[C@H](C(=O)N[C@@H](CCCNC(=N)N)C(=O)N[C@@H](CCC(N)=O)C(=O)N[C@@H](CCCNC(=N)N)C(=O)N[C@@H](Cc1ccc(O)cc1)C(N)=O)[C@@H](C)O
For the molecule B5, affinity was put at a Ki of 2.05 nM.

B6: Compound 8 (peptide)
peptide: Isovaleryl-APEK([Ahx-γGlu-C18 diacid])PEEDETPEELQRYYVSLRHYYNWLTRQRY-NH2
SMILES: CC(C)CC(=O)N[C@@H](C)C(=O)N1CCC[C@H]1C(=O)N[C@@H](CCC(=O)O)C(=O)N[C@@H](CCCCNC(=O)CCCCCNC(=O)CC[C@H](NC(=O)CCCCCCCCCCCCCCCCC(=O)O)C(=O)O)C(=O)N1CCC[C@H]1C(=O)N[C@@H](CCC(=O)O)C(=O)N[C@@H](CCC(=O)O)C(=O)N[C@@H](CC(=O)O)C(=O)N[C@@H](CCC(=O)O)C(=O)N[C@H](C(=O)N1CCC[C@H]1C(=O)N[C@@H](CCC(=O)O)C(=O)N[C@@H](CCC(=O)O)C(=O)N[C@@H](CC(C)C)C(=O)N[C@@H](CCC(N)=O)C(=O)N[C@@H](CCCNC(=N)N)C(=O)N[C@@H](Cc1ccc(O)cc1)C(=O)N[C@@H](Cc1ccc(O)cc1)C(=O)N[C@H](C(=O)N[C@@H](CO)C(=O)N[C@@H](CC(C)C)C(=O)N[C@@H](CCCNC(=N)N)C(=O)N[C@@H](Cc1c[nH]cn1)C(=O)N[C@@H](Cc1ccc(O)cc1)C(=O)N[C@@H](Cc1ccc(O)cc1)C(=O)N[C@@H](CC(N)=O)C(=O)N[C@@H](Cc1c[nH]c2ccccc12)C(=O)N[C@@H](CC(C)C)C(=O)N[C@H](C(=O)N[C@@H](CCCNC(=N)N)C(=O)N[C@@H](CCC(N)=O)C(=O)N[C@@H](CCCNC(=N)N)C(=O)N[C@@H](Cc1ccc(O)cc1)C(N)=O)[C@@H](C)O)C(C)C)[C@@H](C)O
B6 had an inhibitory constant (Ki) of 106 nM. Compared with the last molecule, the Ki is about 52-fold higher.

Values taken from patent publication US20260015399A1 (Boehringer Ingelheim, published 2026).
